Substitutions are numbered along the chain they refer to. Read-outs that look alike come from different tables or passages of the source.
B1: anti-P-cadherin scFv 153 alanine-mutant H3.5-Ala (scFv, V domains shown)
VH: EVQLVQSGAEVKKPGASVKVSCKASGYTFTSYGISWVRQAPGQGLEWMGWISAYNGNTNYAQKLQGRVTMTTDTSTSTAYMELRSLRSDDTAVYYCATIDTAAAFGIWGQGTMVTVSS
VL: QSVLTQPPSVSAAPGQKVTISCSGSSSNIGNNYVSWYQQLPGTAPKLLIYDNNKRPSGIPDRFSGSKSGTSATLGITGLQTGDEADYYCGTWDSSLSGVVFGGGTKLTVL
notes: scFv on phage
B2: anti-P-cadherin scFv 153 alanine-mutant H3.7-Ala (scFv, V domains shown)
VH: B1 VH with A103N, F105A
VL: B1 VL
notes: scFv on phage
B3: anti-P-cadherin scFv 153 alanine-mutant L1.13-Ala (scFv, V domains shown)
VH: B1 VH with A103N
VL: B1 VL with S35A
notes: scFv on phage
B4: anti-P-cadherin scFv 153 alanine-mutant L1.2-Ala (scFv, V domains shown)
VH: B1 VH with A103N
VL: B1 VL with G24A
notes: scFv on phage
B5: anti-P-cadherin scFv 153 alanine-mutant L2.2-Ala (scFv, V domains shown)
VH: B1 VH with A103N
VL: B1 VL with N52A
notes: scFv on phage
B6: anti-P-cadherin scFv 153 alanine-mutant H3.9-Ala (scFv, V domains shown)
VH: B1 VH with A103N, I107A
VL: B1 VL
notes: scFv on phage
B7: anti-P-cadherin scFv 153 alanine-mutant L1.9-Ala (scFv, V domains shown)
VH: B1 VH with A103N
VL: B1 VL with N31A
notes: scFv on phage
B8: anti-P-cadherin scFv 153 alanine-mutant L1.8-Ala (scFv, V domains shown)
VH: B1 VH with A103N
VL: B1 VL with G30A
notes: scFv on phage
B9: anti-P-cadherin scFv 153 alanine-mutant L2.4-Ala (scFv, V domains shown)
VH: B1 VH with A103N
VL: B1 VL with K54A
notes: scFv on phage
B10: anti-P-cadherin scFv 153 alanine-mutant L1.7-Ala (scFv, V domains shown)
VH: B1 VH with A103N
VL: B1 VL with I29A
notes: scFv on phage
B11: anti-P-cadherin scFv 153 alanine-mutant L2.3-Ala (scFv, V domains shown)
VH: B1 VH with A103N
VL: B1 VL with N53A
notes: scFv on phage
B12: anti-P-cadherin scFv 153 alanine-mutant L1.10-Ala (scFv, V domains shown)
VH: B1 VH with A103N
VL: B1 VL with N32A
notes: scFv on phage
B13: anti-P-cadherin scFv 153 alanine-mutant L1.5-Ala (scFv, V domains shown)
VH: B1 VH with A103N
VL: B1 VL with S27A
notes: scFv on phage
B14: anti-P-cadherin scFv 153 alanine-mutant L1.11-Ala (scFv, V domains shown)
VH: B1 VH with A103N
VL: B1 VL with Y33A
notes: scFv on phage
B15: anti-P-cadherin scFv 153 alanine-mutant L1.1-Ala (scFv, V domains shown)
VH: B1 VH with A103N
VL: B1 VL with S23A
notes: scFv on phage
B16: anti-P-cadherin scFv 153 alanine-mutant L1.3-Ala (scFv, V domains shown)
VH: B1 VH with A103N
VL: B1 VL with S25A
notes: scFv on phage
B17: anti-P-cadherin scFv 153 alanine-mutant L2.1-Ala (scFv, V domains shown)
VH: B1 VH with A103N
VL: B1 VL with D51A
notes: scFv on phage
B18: anti-P-cadherin scFv 153 alanine-mutant L1.6-Ala (scFv, V domains shown)
VH: B1 VH with A103N
VL: B1 VL with N28A
notes: scFv on phage
B19: anti-P-cadherin scFv 153 alanine-mutant L1.4-Ala (scFv, V domains shown)
VH: B1 VH with A103N
VL: B1 VL with S26A
notes: scFv on phage
B20: anti-P-cadherin scFv 153 alanine-mutant L1.12-Ala (scFv, V domains shown)
VH: B1 VH with A103N
VL: B1 VL with V34A
notes: scFv on phage
B21: anti-P-cadherin scFv 153 alanine-mutant H3.8-Ala (scFv, V domains shown)
VH: B1 VH with A103N, G106A
VL: B1 VL
notes: scFv on phage

Legend:
[1] = molecular target: T1, P-cadherin-ECD1-3-Fc protein (human P-cadherin-Fc) (human, UniProt P22223 108-440); experiment: phage scFv ELISA, coated P-cadherin-ECD1-3-Fc
T1 construct: Construct was expressed with signal peptide and pro-peptide (PACE co-transfected to process the propeptide); not shown: hinge and CH2 and CH3 domains of human IgG1
Protocol: (§1) P-cadherin-ECD1-3-Fc protein or negative control protein was coated overnight at 4° C. on 96-well Nunc Maxisorp® plates (Thermo Fisher Scientific, Madison, Conn.) at a concentration of 2 μg/mL in PBS+Ca²⁺ and Mg²⁺. Plates were washed three times using PBS+Ca²⁺ and Mg²⁺ and blocked for 1 hour at room temperature in 3% milk/PBS+Ca²⁺ and Mg²⁺. Phage samples prepared as described above were added to the blocked plates for 1 hour at room temperature. Plates were washed three times with PBS+Ca²⁺ and Mg²⁺ prior to the addition of secondary antibody (anti M13-HRP 1:2000, GE Healthcare, Piscataway, N.J.). Plates were incubated for a further 1 hour at room temperature and washed six times with PBS+Ca²⁺ and Mg²⁺. Signal was developed using TMB (SurModics, Eden Prairie, Minn.), the reaction stopped with H₂SO₄ and the absorbance read at 450 nm on an EnVision® plate reader (Perkin Elmer, Waltham, Mass.).

[2] = molecular target: T1, P-cadherin-ECD1-3-Fc protein (human …); experiment: phage scFv ELISA, coated P-cadherin-ECD1-3-Fc; remark: listed apart in the source
Protocol: ScFvs may be expressed on the surface of a phage particle. To prepare phage expressing scFv on their surface, 96-deep well plates containing 1 mL 2× TY media with 2% glucose/100 μg/mL ampicillin were inoculated with 0.5-1 μL from thawed glycerol stocks (one clone per well) using the QPix™2 Colony picker (Molecular Devices, Sunnyvale Calif.) and grown at 37° C. (900 rpm) for ˜4 hours. Next, 5 μL of a 1:29 dilution of helper phage (8.3×10¹³ pfu) was added and the plates and incubated for a further 30 minutes at 37° C. with no shaking then 1 hour at 300 rpm. Plates were centrifuged and the media was replaced with a kanamycin/non-glucose containing media (2× TY with 50 μg/mL kanamycin and 100 μg/mL ampicillin). Plates were grown overnight at 25° C. (900 rpm), and phage were harvested in the supernatant following centrifugation.
as §1

T1 sequence (P22223 108-440): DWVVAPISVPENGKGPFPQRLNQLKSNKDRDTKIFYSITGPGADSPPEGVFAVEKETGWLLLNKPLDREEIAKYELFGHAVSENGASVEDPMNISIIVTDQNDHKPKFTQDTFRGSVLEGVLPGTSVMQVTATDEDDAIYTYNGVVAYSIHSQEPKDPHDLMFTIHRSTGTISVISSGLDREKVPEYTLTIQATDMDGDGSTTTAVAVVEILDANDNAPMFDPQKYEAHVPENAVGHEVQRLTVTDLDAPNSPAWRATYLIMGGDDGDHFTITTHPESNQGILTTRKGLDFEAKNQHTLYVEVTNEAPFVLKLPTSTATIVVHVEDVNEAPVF

Binder | % of binding of Clone #153 to human P-cadherin-Fc [1] | Human P-cadherin-Fc binding (OD450) [1] | Z Score [1] | % of binding of Clone #153 to human P-cadherin-Fc [2] | Human P-cadherin-Fc binding (OD450) [2] | Z Score [2]
B1 | 58% | 0.77 OD450 | -0.9 |  |  | 
B2 | 23% | 0.31 OD450 | -1.6 |  |  | 
B3 |  |  |  | 171% | 2.26 OD450 | 1.5
B4 |  |  |  | 97% | 1.28 OD450 | -0.1
B5 |  |  |  | 102% | 1.35 OD450 | 0
B6 | 61% | 0.8 OD450 | -0.8 |  |  | 
B7 |  |  |  | 129% | 1.71 OD450 | 0.6
B8 |  |  |  | 75% | 1 OD450 | -0.5
B9 |  |  |  | 161% | 2.13 OD450 | 1.3
B10 |  |  |  | 108% | 1.42 OD450 | 0.2
B11 |  |  |  | 74% | 0.98 OD450 | -0.5
B12 |  |  |  | 137% | 1.81 OD450 | 0.8
B13 |  |  |  | 129% | 1.7 OD450 | 0.6
B14 |  |  |  | 139% | 1.84 OD450 | 0.8
B15 |  |  |  | 166% | 2.19 OD450 | 1.4
B16 |  |  |  | 165% | 2.19 OD450 | 1.4
B17 |  |  |  | 110% | 1.45 OD450 | 0.2
B18 |  |  |  | 88% | 1.16 OD450 | -0.3
B19 |  |  |  | 175% | 2.31 OD450 | 1.6
B20 |  |  |  | 173% | 2.29 OD450 | 1.6
B21 | 103% | 1.36 OD450 | 0.1 |  |  | 
